B1: N14ΔSAK42D (SAK42D shortened by 14 amino acids at the N-terminus) (other)
chain: ASYFEPTGPYLMVNVTGVDGKRNELLSPRYVEFPIKPGTTLTKEKIEYYVEWALDATAYKEFRVVELDPSAKIEVTYYDKNKKKEETKSFPITEKGFVVPDLSEHIKNPGFNLITKVVIEKK
B2: SAK42D (mature native staphylokinase of S. aureus phage 42D, expressed free of signal peptide in E. coli TG1(pMEX602sak)) (other)
chain: SSSFDKGKYKKGDDASYFEPTGPYLMVNVTGVDGKRNELLSPRYVEFPIKPGTTLTKEKIEYYVEWALDATAYKEFRVVELDPSAKIEVTYYDKNKKKEETKSFPITEKGFVVPDLSEHIKNPGFNLITKVVIEKK
B3: N10ΔSAK42D (SAK42D shortened by 10 amino acids at the N-terminus) (other)
chain: KGDDASYFEPTGPYLMVNVTGVDGKRNELLSPRYVEFPIKPGTTLTKEKIEYYVEWALDATAYKEFRVVELDPSAKIEVTYYDKNKKKEETKSFPITEKGFVVPDLSEHIKNPGFNLITKVVIEKK

The first assay addresses plasminogen (species not stated).
Assay: not given
“SAK42D (mature native staphylokinase of S. aureus phage 42D, expressed free of signal peptide in E. coli TG1(pMEX602sak)) (from UniProt P15240)” returned a specific activity in µmol plasmin/(µmol SAK × min) (µmol plasmin/(µmol SAK × min)) of 16.2.

Regarding SAKM26C (artificial allelic SAK form), the specific activity in µmol plasmin/(µmol SAK × min) (µmol plasmin/(µmol SAK × min)) was determined as 21.1. The same measure, in the same setting: the result for SAKM26L (artificial allelic SAK form) reads 36.6; that for “N10ΔSAK42D (SAK42D shortened by 10 amino acids at the N-terminus)”, 22.7.

Turning to “N14ΔSAK42D (SAK42D shortened by 14 amino acids at the N-terminus)”, the specific activity in µmol plasmin/(µmol SAK × min) (µmol plasmin/(µmol SAK × min)) amounted to 8.1.

Another assay deals with human plasminogen, isolated from human plasma and immobilized on Protein-Pak epoxy-activated carrier (human, UniProt P00747). Briefly: analytical affinity chromatography on immobilized human plasminogen, 16° C.
With B1, the Kd stood at 4400 nM. Still for that read-out and setting: then B2, with 1480 nM; and B3, with 2210 nM.
